The text below walks through data of publication PMC2173300 (The Journal of Cell Biology, 2002).

In assay [1] the target is T1, GST–Cdc14p (budding yeast, UniProt Q00684 1-551).
T1 sequence: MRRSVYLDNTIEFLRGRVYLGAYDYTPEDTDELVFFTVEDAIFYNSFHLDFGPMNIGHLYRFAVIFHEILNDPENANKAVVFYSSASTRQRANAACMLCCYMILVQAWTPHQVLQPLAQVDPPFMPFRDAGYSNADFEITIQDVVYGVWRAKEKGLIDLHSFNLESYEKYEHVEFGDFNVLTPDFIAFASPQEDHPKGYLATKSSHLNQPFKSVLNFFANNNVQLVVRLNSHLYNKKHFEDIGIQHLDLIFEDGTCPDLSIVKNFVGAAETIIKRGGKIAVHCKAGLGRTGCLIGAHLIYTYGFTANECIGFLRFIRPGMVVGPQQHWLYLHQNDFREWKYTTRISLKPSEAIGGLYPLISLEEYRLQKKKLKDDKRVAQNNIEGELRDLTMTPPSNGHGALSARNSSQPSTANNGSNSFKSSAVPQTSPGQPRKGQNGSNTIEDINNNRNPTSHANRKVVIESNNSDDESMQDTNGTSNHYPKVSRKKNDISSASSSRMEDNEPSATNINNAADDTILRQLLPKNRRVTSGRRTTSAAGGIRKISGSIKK
As to the kind of experiment: pull-down.

For assay [2], the target named is T2, 6His–Cdc14p (budding yeast, UniProt Q00684 1-551).
T2 sequence: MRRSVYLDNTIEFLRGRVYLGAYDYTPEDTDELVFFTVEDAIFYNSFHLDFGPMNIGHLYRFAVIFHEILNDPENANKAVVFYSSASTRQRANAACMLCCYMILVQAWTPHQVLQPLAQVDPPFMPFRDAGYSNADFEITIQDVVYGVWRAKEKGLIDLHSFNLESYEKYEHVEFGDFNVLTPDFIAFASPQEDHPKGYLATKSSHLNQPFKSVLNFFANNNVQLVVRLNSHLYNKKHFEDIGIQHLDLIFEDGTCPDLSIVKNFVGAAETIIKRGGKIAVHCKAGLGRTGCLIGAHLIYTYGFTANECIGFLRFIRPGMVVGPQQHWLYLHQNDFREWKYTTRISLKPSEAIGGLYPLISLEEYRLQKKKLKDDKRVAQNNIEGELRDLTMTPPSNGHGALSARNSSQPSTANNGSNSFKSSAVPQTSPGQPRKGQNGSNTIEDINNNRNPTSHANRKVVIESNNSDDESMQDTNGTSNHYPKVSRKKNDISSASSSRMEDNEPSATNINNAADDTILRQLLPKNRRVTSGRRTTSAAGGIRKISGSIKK
The assay can be described thus: pull-down.

B1: 6His–Tem1p (natural protein)
chain: MATPSTGANNSIPAVRNQVEVQVGLVGDAQVGKTSLMVKYVQNIYDKEYTQTLGVNFLKRKVSIRSTDIIFSIMDLGGQREFINMLPIATVGSSVIIFLFDLTRPETLSSIKEWYRQAYGLNDSAIPILVGTKYDLLIDLDPEYQEQISRTSMKYAQVMNAPLIFCSTAKSINIQKIFKIALAKIFNLTLTIPEINEIGDPLLIYKHLGGQQHRHHNKSQDRKSHNIRKPSSSPSSKAPSPGVNT
B1: the binding result in assay [1] is on record as “binds”.

B2: GST–Bfa1p^1–394 (domain or fragment)
chain: MSIRPLTLNGLDEPETSFEELNTTLPRFQSHETLTLEENVPPLSTSTYIPPPSSVGTSDTGTVFSNSTSAFWSNKQADDDQDMEVDQDDEFLNDFQEFQNKKDDFDDAIKTNFHLRNGCRTGPFKNDIFAEEFDRKLSLEDKPRLKQPRSMMELKPKRKLSNSVTSRNLRSGNSVRFKKSMPNLALVNPAIREEEEDEEREREDQREFNYKIDNDTQDTILAKFSSDDEGDFLTGFEELEGEAIDETISSNDKESADHPRFLKKSSSSLPLKISPAQYDIVKHDELLTPGLHRRQRDWNTQQELDSFKEKRSVRHCSNQNVQLNGPAKIKTIKQQIDHNTPMKKGSMIYNPKTMKWEGNENVLSKFSDVDTANRKALLIKNKLQRDADSKKQKY
Turning to B2, the binding result in assay [2] is recorded as “binds”.
